T1: B-cat-Halo (UniProt P35222 1-781)
T1 sequence (looked up): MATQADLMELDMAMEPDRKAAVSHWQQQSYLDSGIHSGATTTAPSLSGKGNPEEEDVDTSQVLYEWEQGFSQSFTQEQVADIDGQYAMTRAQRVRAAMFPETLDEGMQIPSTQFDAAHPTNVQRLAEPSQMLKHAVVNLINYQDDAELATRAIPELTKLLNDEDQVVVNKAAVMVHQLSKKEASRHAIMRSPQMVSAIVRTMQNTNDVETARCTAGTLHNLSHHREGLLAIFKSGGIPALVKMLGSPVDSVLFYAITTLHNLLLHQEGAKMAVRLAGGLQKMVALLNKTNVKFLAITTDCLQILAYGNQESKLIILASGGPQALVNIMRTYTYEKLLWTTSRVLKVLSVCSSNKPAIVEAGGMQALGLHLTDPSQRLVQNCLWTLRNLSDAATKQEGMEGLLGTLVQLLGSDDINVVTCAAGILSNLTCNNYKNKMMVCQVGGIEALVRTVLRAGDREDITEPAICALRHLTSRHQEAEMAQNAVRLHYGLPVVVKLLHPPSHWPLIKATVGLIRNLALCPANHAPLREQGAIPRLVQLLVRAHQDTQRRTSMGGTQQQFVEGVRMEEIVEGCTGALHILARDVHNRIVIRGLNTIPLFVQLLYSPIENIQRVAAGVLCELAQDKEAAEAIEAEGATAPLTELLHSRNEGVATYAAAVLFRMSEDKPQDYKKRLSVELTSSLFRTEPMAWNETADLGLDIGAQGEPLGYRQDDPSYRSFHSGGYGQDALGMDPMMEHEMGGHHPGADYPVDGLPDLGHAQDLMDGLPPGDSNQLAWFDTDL

T2: B-cat-Halo (beta-catenin HaloTag construct expressed in HEK293 cells) (UniProt P35222 1-781)
T2 sequence (looked up): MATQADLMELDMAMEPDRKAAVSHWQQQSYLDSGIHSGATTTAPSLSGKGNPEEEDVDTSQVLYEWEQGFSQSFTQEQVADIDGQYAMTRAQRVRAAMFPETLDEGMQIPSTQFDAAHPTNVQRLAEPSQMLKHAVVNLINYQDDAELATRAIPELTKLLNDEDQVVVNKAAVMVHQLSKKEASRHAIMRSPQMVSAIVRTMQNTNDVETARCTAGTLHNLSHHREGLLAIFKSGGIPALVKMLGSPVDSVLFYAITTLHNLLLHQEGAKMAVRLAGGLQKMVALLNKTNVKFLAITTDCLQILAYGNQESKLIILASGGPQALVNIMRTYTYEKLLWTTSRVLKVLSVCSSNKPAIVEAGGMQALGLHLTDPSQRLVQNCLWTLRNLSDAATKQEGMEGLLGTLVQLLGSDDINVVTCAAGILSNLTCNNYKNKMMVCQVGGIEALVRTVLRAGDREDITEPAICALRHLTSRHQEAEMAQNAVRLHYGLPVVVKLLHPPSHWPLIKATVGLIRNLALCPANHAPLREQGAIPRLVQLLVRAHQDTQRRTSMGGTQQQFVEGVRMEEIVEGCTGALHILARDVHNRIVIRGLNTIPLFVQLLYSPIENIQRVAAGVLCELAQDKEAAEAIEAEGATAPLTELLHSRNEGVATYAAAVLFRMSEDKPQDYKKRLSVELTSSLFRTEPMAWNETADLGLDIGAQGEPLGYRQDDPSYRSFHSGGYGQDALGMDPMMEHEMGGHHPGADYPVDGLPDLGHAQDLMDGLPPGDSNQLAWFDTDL

Starred links: 1 amine or outer side, 2 acyl side, 3 side chain; linkers in the order of their positions; H or OH if unused. Positions of bridges follow the written chain, without caps; N, C: chain ends. Non-standard residues stand in square brackets, D forms with d. Primed or numbered codes have the meaning given here. ξ: configuration not given here. PyrS2″ = (S)-3-amino-1-((pent-4-en-1-yloxy)carbonyl)pyrrolidine-3-carboxylic acid (stapling residue), C=CCCCOC(=O)N1CC[C@@](N[*:1])(C(=O)[*:2])C1; B5(4) = 2,2-bis(4-pentenyl)glycine = 2-amino-2-(pent-4-en-1-yl)hept-6-enoic acid (stitching residue), C=CCCCC(CCCC=C)(N[*:1])C(=O)[*:2]; TfeGA = (S)-2-amino-3-((carboxymethyl)(2,2,2-trifluoroethyl)amino)propanoic acid, O=C([C@H](CN(CC(=O)[*:3])CC(F)(F)F)N[*:1])[*:2]; PyrS1 = (S)-3-amino-1-((but-3-en-1-yloxy)carbonyl)pyrrolidine-3-carboxylic acid, C=CCCOC(=O)N1CC[C@@](N[*:1])(C(=O)[*:2])C1; PyrS = (S)-1-((allyloxy)carbonyl)-3-aminopyrrolidine-3-carboxylic acid, C=CCOC(=O)N1CC[C@@](N[*:1])(C(=O)[*:2])C1; B5(19) = 2-amino-2-(pent-4-en-1-yl)hept-6-enoic acid (bis(4-pentenyl)glycine), C=CCCCC(CCCC=C)(N[*:1])C(=O)[*:2]; Phe(2-Cl) = N[C@@H](Cc1ccccc1Cl)C(=O)O; Bta = N[C@@H](Cc1csc2ccccc12)C(=O)O; αAllylPro = C=CC[C@@]1(C(=O)O)CCCN1; tBuAla = CC(C)(C)C[C@H](N)C(=O)O; 3Thi = N[C@@H](Cc1ccsc1)C(=O)O; Cha = N[C@@H](CC1CCCCC1)C(=O)O; ξβ3hD = NC(CC(=O)O)CC(=O)O; Aib = CC(C)(N)C(=O)O

The target in one assay is T1, B-cat-Halo. Put plainly: cell-based or functional assay.
Ac-[αAllylPro]D[Cha][B5(4)]DTAAFL[PyrS2″][3Thi][Bta]Q-NH2 (staple 1-4, 4-11) [I-1174]: the “NanoBRET Abs IC50” value stood at 32.6 µM.
Same read-out and setting: the figure for Ac-[αAllylPro][ξβ3hD][tBuAla][B5(4)]D[TfeGA]AAFN[PyrS2″][3Thi][Bta]Q-NH2 (staple 1-4, 4-11) [I-1161] is over 20 µM; for Ac-[αAllylPro]D[tBuAla][B5(4)]DD[Aib]AFL[PyrS2″][3Thi][Bta]Q-NH2 (staple 1-4, 4-11) [I-1177] it is 4.3 µM; for Ac-[αAllylPro]D[tBuAla][B5(4)]DTAAFT[PyrS2″][3Thi][Bta]Q-NH2 (staple 1-4, 4-11) [I-1166] it is 14.6 µM.
Take Ac-[αAllylPro]D[tBuAla][B5(4)]DTAAFL[PyrS2″][3Thi][Bta]Q-NH2 (staple 1-4, 4-11) [I-1167]: the “NanoBRET Abs IC50” value is 11.7 µM.
As to Ac-[αAllylPro]D[tBuAla][B5(4)]DTAAFL[PyrS2″][Phe(2-Cl)][Bta]S-NH2 (staple 1-4, 4-11) [I-1172], the “NanoBRET Abs IC50” value amounted to 19.4 µM.
Still for that read-out and setting: as for Ac-[αAllylPro]D[Cha][B5(4)]DTAAFT[PyrS2″][3Thi][Bta]Q-NH2 (staple 1-4, 4-11) [I-1173], the figure is 17.2 µM.
As to Ac-[αAllylPro]D[tBuAla][B5(4)]DTAAFT[PyrS2″][3Thi][Bta]S-NH2 (staple 1-4, 4-11) [I-1170], the “NanoBRET Abs IC50” value came to 13.5 µM.
Regarding Ac-[αAllylPro]D[tBuAla][B5(4)]DTAAFL[PyrS2″][3Thi][Bta]S-NH2 (staple 1-4, 4-11) [I-1171], the “NanoBRET Abs IC50” value is 28.8 µM.
Ac-[αAllylPro]D[tBuAla][B5(4)]DTAAFT[PyrS2″][Phe(2-Cl)][Bta]Q-NH2 (staple 1-4, 4-11) [I-1168]: the “NanoBRET Abs IC50” value was determined as 31.4 µM.
As for Ac-[αAllylPro]D[Cha][B5(4)]DTAAFT[PyrS2″][Phe(2-Cl)][Bta]Q-NH2 (staple 1-4, 4-11) [I-1175], the “NanoBRET Abs IC50” value stood at 27.3 µM.
Consider Ac-[αAllylPro]D[tBuAla][B5(4)]DDA[Aib]FL[PyrS2″][3Thi][Bta]Q-NH2 (staple 1-4, 4-11) [I-1178], for which the “NanoBRET Abs IC50” value was determined as 28.8 µM.

Another assay addresses T2, B-cat-Halo (beta-catenin HaloTag …). The experiment in a line: cell-based or functional assay.
For Ac-[αAllylPro]D[tBuAla][B5(19)]DDAAFL[PyrS1][3Thi][Bta]Q-NH2 (staple 1-4, 4-11; also: staple olefins reduced to CH2-CH2) [I-1822], the “NanoBRET Abs IC50” value is over 20 µM.
Same read-out and setting: as for Ac-[αAllylPro]D[tBuAla][B5(19)]DDAAFN[PyrS1][3Thi][Bta]Q-NH2 (staple 1-4, 4-11; also: staple olefins reduced to CH2-CH2) [I-1821], the figure is over 20 µM; as for Ac-[αAllylPro]D[tBuAla][B5(19)]DDAAFL[PyrS][3Thi][Bta]Q-NH2 (staple 1-4, 4-11) [I-1818], over 20 µM.

Source of the values: patent US20240116985A1 (published 2024).
